Where two headings read alike, the source gives them in different places. *1 amine or outer side, *2 acyl side, *3 side chain or, on linkers, in order; H or OH if unused. Where no end group is shown, it is not given here. Side-chain parts run from the residue outwards. [ ]: non-standard residue; d: D form. The star is where a group is joined. C20 diacid = O=C(O)CCCCCCCCCCCCCCCCCCC(=O)*; C18 diacid = O=C(O)CCCCCCCCCCCCCCCCC(=O)*; γGlu = O=C(O)[C@H](CCC(=O)[*:2])N[*:1]; εLys = N[C@@H](CCCCN[*:1])C(=O)[*:2]; NMeQ = CN[C@@H](CCC(N)=O)C(=O)O; AEEA = NCCOCCOCC(=O)O; Aib = CC(C)(N)C(=O)O; Ahx = NCCCCCC(=O)O
T1: hGIPR (Homo sapiens, UniProt P48546)
T1 construct: expressed in transfected cells; host or cells: CHO CRE-luciferase reporter cells
T1 sequence (P48546 22-466): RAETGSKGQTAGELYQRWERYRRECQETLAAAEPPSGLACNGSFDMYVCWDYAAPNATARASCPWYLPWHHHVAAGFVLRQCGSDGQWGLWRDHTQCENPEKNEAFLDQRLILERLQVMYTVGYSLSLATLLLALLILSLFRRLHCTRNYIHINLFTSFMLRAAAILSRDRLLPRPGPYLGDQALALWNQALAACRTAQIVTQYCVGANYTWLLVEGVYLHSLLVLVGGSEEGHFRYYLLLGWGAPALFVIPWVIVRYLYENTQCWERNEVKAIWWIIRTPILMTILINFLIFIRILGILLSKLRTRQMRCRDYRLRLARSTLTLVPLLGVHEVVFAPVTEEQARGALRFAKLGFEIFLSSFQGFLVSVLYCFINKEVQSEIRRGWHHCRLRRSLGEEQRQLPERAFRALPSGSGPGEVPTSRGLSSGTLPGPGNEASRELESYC

T2: human neuropeptide Y2 receptor (human, UniProt P49146 1-381)
T2 sequence (looked up): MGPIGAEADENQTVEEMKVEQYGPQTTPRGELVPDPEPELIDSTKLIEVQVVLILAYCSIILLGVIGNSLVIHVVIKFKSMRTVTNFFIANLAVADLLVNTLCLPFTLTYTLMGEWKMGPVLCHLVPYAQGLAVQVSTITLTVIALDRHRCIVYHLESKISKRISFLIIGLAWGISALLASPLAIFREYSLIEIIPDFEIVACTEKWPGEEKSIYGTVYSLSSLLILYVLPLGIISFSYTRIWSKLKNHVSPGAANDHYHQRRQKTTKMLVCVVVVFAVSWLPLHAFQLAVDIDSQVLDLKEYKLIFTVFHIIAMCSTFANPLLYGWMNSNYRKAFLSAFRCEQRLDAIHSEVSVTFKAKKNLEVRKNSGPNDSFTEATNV

T3: human neuropeptide Y2 receptor (human, UniProt P49146 1-381)
T3 sequence (looked up): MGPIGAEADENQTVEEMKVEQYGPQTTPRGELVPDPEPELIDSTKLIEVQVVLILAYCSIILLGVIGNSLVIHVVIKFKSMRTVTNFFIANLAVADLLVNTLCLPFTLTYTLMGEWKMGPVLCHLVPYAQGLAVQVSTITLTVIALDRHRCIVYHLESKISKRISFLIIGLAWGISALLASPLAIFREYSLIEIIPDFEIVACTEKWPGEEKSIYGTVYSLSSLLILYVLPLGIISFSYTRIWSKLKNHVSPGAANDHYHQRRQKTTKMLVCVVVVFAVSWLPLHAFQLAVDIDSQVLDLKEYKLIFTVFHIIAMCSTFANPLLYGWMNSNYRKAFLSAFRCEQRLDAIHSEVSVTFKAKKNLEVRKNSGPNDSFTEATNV


Columns and labels:
[1] = Solubility in 0.1 M phosphate buffer at pH 7; format: physicochemical; conditions: 0.1 M phosphate buffer at pH 7, 10 mg/mL final peptide concentration, shaking 2 hours at room temperature, peptides as TFA-salts; measured sample pH 6.5-7.0
hGIPR = target: T1, hGIPR; assay: hGIPR CreLuc assay in 0.5% and 100% plasma (CHO CRE-luciferase reporter cells); format: cell-based
[2] = target: T2, human neuropeptide Y2 receptor; assay: cell-based or functional assay
[3] = target: T3, human neuropeptide Y2 receptor; assay: cell-based or functional assay; remark: listed apart in the source
[4] = 0.5% human plasma, read-out: hGIPR 0.5% hP

| Molecule | EC50, CreLuc reporter, 0.5% hP [2] [nM] | EC50, CreLuc reporter, 100% hP [2] [nM] | EC50, CreLuc reporter, 0.5% hP [3] [nM] | EC50, CreLuc reporter, 100% hP [3] [nM] | further results |
| --- | --- | --- | --- | --- | --- |
| CC[C@H](C)[C@H](NC(=O)[C@H](CC(C)C)NC(=O)[C@H](Cc1c[nH]cn1)NC(=O)[C@H](CCCNC(=N)N)NC(=O)[C@@H](NC(=O)[C@H](Cc1ccccc1)NC(=O)[C@H](C)NC(=O)C(C)(C)NC(=O)[C@H](CCC(N)=O)NC(=O)[C@H](C)NC(=O)[C@H](CCC(N)=O)NC(=O)[C@H](CCCCN)NC(=O)[C@H](CCC(=O)O)NC(=O)[C@H](CC(C)C)NC(=O)C(C)(C)NC(=O)[C@@H](NC(=O)[C@H](CO)NC(=O)[C@H](Cc1ccc(O)cc1)NC(=O)[C@H](CC(=O)O)NC(=O)[C@H](CO)NC(=O)[C@@H](NC(=O)[C@H](Cc1ccccc1)NC(=O)[C@@H](NC(=O)CNC(=O)[C@H](CCC(=O)O)NC(=O)C(C)(C)NC(=O)[C@@H](N)Cc1ccc(O)cc1)[C@@H](C)O)[C@@H](C)O)[C@@H](C)CC)C(C)C)C(=O)N[C@@H](CC(N)=O)C(=O)N[C@@H](CCCCNC(=O)CC[C@H](NC(=O)CC[C@H](NC(=O)CC[C@H](NC(=O)[C@@H](N)CCCCNC(=O)CC[C@H](NC(=O)CC[C@H](NC(=O)CC[C@H](NC(=O)CCCCCCCCCCCCCCCCC(=O)O)C(=O)O)C(=O)O)C(=O)O)C(=O)O)C(=O)O)C(=O)O)C(=O)NC(C)(C)C(=O)N[C@H](C(=O)N[C@@H](CCCNC(=N)N)C(=O)N[C@@H](CCC(N)=O)C(=O)N[C@@H](CCCNC(=N)N)C(=O)N[C@@H](Cc1ccc(O)cc1)C(N)=O)[C@@H](C)O [Compound 168, Y-Aib-E-G-T-F-T-S-D-Y-S-I-Aib-L-E-K-Q-A-Q-Aib-A-F-V-R-H-L-I-N-K(1,3)-Aib-T-R-Q-R-Y-NH2.C18DA-gGlu-gGlu-gGlu-eLys-gGlu-gGlu-gGlu(1,2)] |  |  |  |  | solubility at 2 h [1]: 8200 µg/mL; EC50 (hGIPR; [4]): 0.2 nM |
| CC[C@H](C)[C@H](NC(=O)[C@H](CC(C)C)NC(=O)[C@H](Cc1c[nH]cn1)NC(=O)[C@H](CCCNC(=N)N)NC(=O)[C@@H](NC(=O)[C@H](Cc1ccccc1)NC(=O)[C@H](C)NC(=O)C(C)(C)NC(=O)[C@H](CCC(N)=O)NC(=O)[C@H](C)NC(=O)[C@H](CCC(N)=O)NC(=O)[C@H](CCCCN)NC(=O)[C@H](CCC(=O)O)NC(=O)[C@H](CC(C)C)NC(=O)C(C)(C)NC(=O)[C@@H](NC(=O)[C@H](CO)NC(=O)[C@H](Cc1ccc(O)cc1)NC(=O)[C@H](CC(=O)O)NC(=O)[C@H](CO)NC(=O)[C@@H](NC(=O)[C@H](Cc1ccccc1)NC(=O)[C@@H](NC(=O)CNC(=O)[C@H](CCC(=O)O)NC(=O)C(C)(C)NC(=O)[C@@H](N)Cc1ccc(O)cc1)[C@@H](C)O)[C@@H](C)O)[C@@H](C)CC)C(C)C)C(=O)N[C@@H](CC(N)=O)C(=O)N[C@@H](CCCCNC(=O)CCCCCNC(=O)CC[C@H](NC(=O)CCCCCNC(=O)CC[C@H](NC(=O)CC[C@H](NC(=O)CC[C@H](NC(=O)CC[C@H](NC(=O)CCCCCCCCCCCCCCCCCCC(=O)O)C(=O)O)C(=O)O)C(=O)O)C(=O)O)C(=O)O)C(=O)NC(C)(C)C(=O)N[C@H](C(=O)N[C@@H](CCCNC(=N)N)C(=O)N[C@@H](CCC(N)=O)C(=O)N[C@@H](CCCNC(=N)N)C(=O)N[C@@H](Cc1ccc(O)cc1)C(N)=O)[C@@H](C)O [Compound 175, Y-Aib-E-G-T-F-T-S-D-Y-S-I-Aib-L-E-K-Q-A-Q-Aib-A-F-V-R-H-L-I-N-K(1,3)-Aib-T-R-Q-R-Y-NH2.C20DA-gGlu-gGlu-gGlu-gGlu-AHX-gGlu-AHX(1,2)] |  |  |  |  | solubility at 2 h [1]: 8400 µg/mL; EC50 (hGIPR; [4]): 0.2 nM; EC50 (hGIPR; 100% human plasma, read-out: hGIPR 100% hP): 5.6 nM |
| Y[Aib]EGTFTSDYSI[Aib]LEKQAQ[Aib]AFVRHLINK([AEEA-γGlu-γGlu-γGlu-γGlu-γGlu-γGlu-C18 diacid])[Aib]TRQRY-NH2 [Compound 47] | 19.9 | 72.6 |  |  |  |
| YXEGTFTSDYSIXLEKQAQXAFVRHLINKXTRQRY (Aib at 2, 13, 20, 30; Lys29 epsilon-amino acylated with C18DA-gGlu-gGlu-gGlu-gGlu-gGlu-gGlu-gGlu; C-terminal amide) [Compound 38] |  | 141 |  |  |  |
| YXEGTFTSDYSIXLEKQAQXAFVRHLINKXTRQRY (Aib at 2, 20, 30; aMeL at 13; Lys29 epsilon-amino acylated with C20DA-gGlu-gGlu-gGlu-gGlu-gGlu-gGlu; C-terminal amide) [Compound 49] |  | 763 |  |  |  |
| YXEGTFTSDYSIXLEKQAQXAFVRHLINKXTRQRY (Aib at 2, 13, 20, 30; Lys29 epsilon-amino acylated with C18DA-gGlu-gGlu-gGlu-gGlu-gGlu-AHX; C-terminal amide) [Compound 13] | 18.7 | 121 |  |  |  |
| YXEGTFTSDYSIXLEKQAEXAFVRHLINKXTRQRY (Aib at 2, 13, 20, 30; Lys29 epsilon-amino acylated with C18DA-gGlu-gGlu-gGlu-gGlu-gGlu-gGlu-eLys; C-terminal amide) [Compound 10] | 26.3 | 28.2 |  |  |  |
| Y[Aib]EGTFTSDYSI[Aib]LEKQAQ[Aib]AFVRHLINK([Ahx-γGlu-γGlu-γGlu-γGlu-γGlu-γGlu-C18 diacid])[Aib]TRQRY-NH2 [Compound 9] | 25.1 | 75.4 |  |  |  |
| Y[Aib]EGTFTSDYSI[Aib]LEKQAQ[Aib]AFVRHLINK([γGlu-γGlu-γGlu-γGlu-γGlu-γGlu-C18 diacid])[Aib]TR[NMeQ]RY-NH2 [Compound 2] | 89.9 | 258 |  |  |  |
| Y[Aib]EGTFTSDYSI[Aib]LEKQAQ[Aib]AFVRHLINK([γGlu-γGlu-εLys-γGlu-γGlu-γGlu-γGlu-C18 diacid])[Aib]TRQRY-NH2 [Compound 34] | 14.6 | 28 |  |  |  |
| Y[Aib]EGTFTSDYSI[Aib]LEKQAQ[Aib]EFVRHLINK([εLys-γGlu-γGlu-γGlu-γGlu-γGlu-γGlu-γGlu-C18 diacid])[Aib]TRQRY-NH2 [Compound 30] | 33.9 | 81.1 |  |  |  |

The next lines start with results.

| EC50, CreLuc reporter, 0.5% hP [2] [nM] | EC50, CreLuc reporter, 100% hP [2] [nM] | EC50, CreLuc reporter, 0.5% hP [3] [nM] | EC50, CreLuc reporter, 100% hP [3] [nM] | Molecule | further results |
| --- | --- | --- | --- | --- | --- |
|  |  | 17.5 | 85.9 | YXEGTFTSDYSIXLDKQAQXEFVRHLINKXTRQRY (Aib at 2, 13, 20, 30; Lys29 epsilon-amino: C18DA-gGlu-gGlu-gGlu-gGlu-gGlu-gGlu-eLys; C-terminal amide) [Compound 131] |  |
|  |  | 51.6 | 232 | YXEGTFTSDYSIXLEAQAQXAFVRHLINKXTRQRY (Aib at 2, 13, 20, 30; Lys29 epsilon-amino: C18DA-gGlu-gGlu-gGlu-gGlu-gGlu-gGlu-eLys; C-terminal amide) [Compound 123] |  |
|  |  | 13.3 | 20.3 | YXEGTFTSDYSIXLEKQAQXAFVRHLLNKXTRQRY (Aib at 2, 13, 20, 30; Lys29 epsilon-amino: C18DA-gGlu-gGlu-gGlu-gGlu-gGlu-gGlu-eLys; C-terminal amide) [Compound 107] |  |
|  |  | 27.3 | 202 | YXEGTFTSDYSIXLEKQAQXEFVRHLINKXTRQRY (Aib at 2, 13, 20, 30; Lys29 epsilon-amino: C18DA-gGlu-gGlu-gGlu-gGlu-gGlu-OEG-OEG; C-terminal amide) [Compound 98] |  |
|  |  | 17.1 | 32.9 | YXEGTFTSDYSIALEKQAQXAFVRHLINKXTRQRY (Aib at 2, 20, 30; Lys29 epsilon-amino: C18DA-gGlu-gGlu-gGlu-gGlu-gGlu-gGlu-eLys; C-terminal amide) [Compound 165] |  |
|  |  |  | 39.2 | YXEGTFTSDYSIXLEKQAQXAFVRHLINKXTRQRY (Aib at 2, 13, 20, 30; Lys29 epsilon-amino: C18DA-gGlu-gGlu-gGlu-gGlu-gGlu-OEG-OEG; C-terminal amide) [Compound 117] |  |
|  |  | 15.9 | 135 | Y[Aib]EGTFTSDYSI[Aib]LEKQAQ[Aib]AFVRHLINK([Ahx-γGlu-γGlu-γGlu-γGlu-γGlu-γGlu-C20 diacid])[Aib]TRQRY-NH2 [Compound 157] |  |
|  |  | 20.3 | 120 | Y[Aib]EGTFTSDYSI[Aib]LDEQAQ[Aib]AFVRHLINK([εLys-γGlu-γGlu-γGlu-γGlu-γGlu-C18 diacid])[Aib]TRQRY-NH2 [Compound 108] |  |
|  |  | 27.7 |  | Y[Aib]EGTFTSDYSI[Aib]LEKQAQ[Aib]AFVRHLINK([γGlu-γGlu-γGlu-εLys-γGlu-γGlu-γGlu-C18 diacid])[Aib]TRQRY-NH2 [Compound 168] |  |
